Read-outs that look alike come from different tables or passages of the source.
T1: AtLFYΔ40 (LEAFY) (Arabidopsis thaliana, UniProt Q00958 41-420, del1-40)
T1 sequence: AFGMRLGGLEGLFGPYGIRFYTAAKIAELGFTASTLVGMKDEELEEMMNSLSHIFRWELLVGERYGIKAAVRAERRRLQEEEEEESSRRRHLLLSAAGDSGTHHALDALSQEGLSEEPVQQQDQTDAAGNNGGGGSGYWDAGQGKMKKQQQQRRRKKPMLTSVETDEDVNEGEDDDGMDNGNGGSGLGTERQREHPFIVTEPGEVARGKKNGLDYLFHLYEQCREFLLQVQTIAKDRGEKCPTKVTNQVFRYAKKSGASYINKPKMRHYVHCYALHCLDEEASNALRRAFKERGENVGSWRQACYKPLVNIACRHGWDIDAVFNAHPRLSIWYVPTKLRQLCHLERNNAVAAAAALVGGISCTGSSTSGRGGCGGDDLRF


Assays:
AtLFYΔ40 (LEAFY) [1] = target: T1, AtLFYΔ40 (LEAFY); test: EMSA
AtLFYΔ40 (LEAFY) [2] = target: T1, AtLFYΔ40 (LEAFY); test: EMSA; remark: listed apart in the source

| Binder | binding result (AtLFYΔ40 (LEAFY) [1]) | binding result (AtLFYΔ40 (LEAFY) [2]) |
| --- | --- | --- |
| 601 free DNA (dsDNA) DNA 1: ATCGATGTATATATCTGACACGTGCCTGGAGACTAGGGAGTAATCCCCTTGGCGGTTAAAACGCGGGGGACAGCGCGTACGTGCGTTTAAGCGGTGCTAGAGCTGTCTACGACCAATTGAGCGGCCTCGGCACCGGGATTCTGAT DNA 2: ATCAGAATCCCGGTGCCGAGGCCGCTCAATTGGTCGTAGACAGCTCTAGCACCGCTTAAACGCACGTACGCGCTGTCCCCCGCGTTTTAACCGCCAAGGGGATTACTCCCTAGTCTCCAGGCACGTGTCAGATATATACATCGAT | binds |  |
| C2 free DNA (dsDNA) DNA 1: ATCGATGTATATATCTGACACGTGCCTGGAGACTAGGGAGTAATCCCCTTGGCGGTTAAAACGCATTGACCAGCGGGTAATTGCGTTTAAGCGGTGCTAGAGCTGTCTACGACCAATTGAGCGGCCTCGGCACCGGGATTCTGAT DNA 2: ATCAGAATCCCGGTGCCGAGGCCGCTCAATTGGTCGTAGACAGCTCTAGCACCGCTTAAACGCAATTACCCGCTGGTCAATGCGTTTTAACCGCCAAGGGGATTACTCCCTAGTCTCCAGGCACGTGTCAGATATATACATCGAT |  | binds |
